Consider one substance from patent publication US20100286374A1.

In the assay the target is huIgG1 Fc (dummy) K409D&K392D (human) [IgG part: P0DOX5]. Kind of assay: co-expression in 293-6E with M315 scFv-Fc D399′K; E357′K, non-reduced SDS-PAGE (FIG. 10), band density.

On to “huIgG1 Fc (dummy) K409D&K392D (from UniProt P0DOX5 218-449)”, for which the percentage of Dummy Fc Homodimer yield turned out to be 20.9%.
